Measurements: the supplement of paper PMC11246515
± gives the standard deviation of the averaged measurements.

Experiment: total protein half-life in vivo (active degradation + dilution); higher = more stable protein
[1] = E. coli NCM3722 delta-hslV, growth: N-lim chemostat, doubling time 6 h
[2] = E. coli NCM3722 delta-lon, growth: N-lim chemostat, doubling time 6 h
[3] = E. coli NCM3722 delta-smpB, growth: N-lim chemostat, doubling time 6 h
[4] = wild type E. coli NCM3722, growth: C-lim chemostat, doubling time 3 h
[5] = wild type E. coli NCM3722, growth: C-lim chemostat, doubling time 6 h
[6] = wild type E. coli NCM3722, growth: C-lim chemostat, doubling time 12 h
[7] = wild type E. coli NCM3722, growth: N-lim chemostat, doubling time 12 h
[8] = wild type E. coli NCM3722, growth: P-lim chemostat, doubling time 6 h
[9] = wild type E. coli NCM3722, growth: P-lim chemostat, doubling time 12 h
[10] = E. coli NCM3722 delta-clpP, growth: N-lim chemostat, doubling time 6 h
[11] = E. coli NCM3722 delta-clpP delta-lon delta-hslV, growth: N-lim chemostat, doubling time 6 h
[12] = wild type E. coli NCM3722, growth: N-lim chemostat, doubling time 6 h

| Sequence | total protein half-life in vivo [1] [h] | total protein half-life in vivo [2] [h] | total protein half-life in vivo [3] [h] | total protein half-life in vivo [4] [h] | total protein half-life in vivo [5] [h] | total protein half-life in vivo [6] [h] | total protein half-life in vivo [7] [h] | total protein half-life in vivo [8] [h] | total protein half-life in vivo [9] [h] | total protein half-life in vivo [10] [h] | total protein half-life in vivo [11] [h] | total protein half-life in vivo [12] [h] |
| --- | --- | --- | --- | --- | --- | --- | --- | --- | --- | --- | --- | --- |
| MKKIIETQRAPGAIGPYVQGVDLGSMVFTSGQIPVCPQTGEIPADVQDQARLSLENVKAIVVAAGLSVGDIIKMTVFITDLNDFATINEVYKQFFDEHQATYPTRSCVQVARLPKDVKLEIEAIAVRSA [P0AGL2] | 4.94 ± 0.13 | 5.08 ± 0.99 | 3.9 | 2.79 | 5.42 | 9.66 ± 1.9 | 7.12 | 6.2 | 10.6 ± 0.78 | – | – | – |
| MRFCLILITALLLAGCSHHKAPPPNARLSDSITVIAGLNDQLQSWHGTPYRYGGMTRRGVDCSGFVVVTMRDRFDLQLPRETKQQASIGTQIDKDELLPGDLVFFKTGSGQNGLHVGIYDTNNQFIHASTSKGVMRSSLDNVYWQKNFWQARRI | – | 0.828 | 1.61 ± 0.18 | 0.468 ± 0.23 | 1.4 | > 16 | 4.32 | 2.28 | 4.21 ± 0.75 | 1.22 | – | – |
| MKKIGVILSGCGVYDGSEIHEAVLTLLAISRSGAQAVCFAPDKQQVDVINHLTGEAMTETRNVLIEAARITRGEIRPLAQADAAELDALIVPGGFGAAKNLSNFASLGSECTVDRELKALAQAMHQAGKPLGFMCIAPAMLPKIFDFPLRLTIGTDIDTAEVLEEMGAEHVPCPVDDIVVDEDNKIVTTPAYMLAQNIAEAASGIDKLVSRVLVLAE [P0ABU5] | 4.76 ± 0.49 | 5.05 ± 0.41 | 4.5 ± 0.09 | – | 6.9 ± 1.3 | 10.8 ± 0.44 | 7.44 ± 0.33 | 5.67 ± 0.31 | 13.4 ± 0.84 | 4.46 ± 0.24 | 5.23 ± 0.27 | 4.79 ± 0.54 |
| MKQYLIAPSILSADFARLGEDTAKALAAGADVVHFDVMDNHYVPNLTIGPMVLKSLRNYGITAPIDVHLMVKPVDRIVPDFAAAGASIITFHPEASEHVDRTLQLIKENGCKAGLVFNPATPLSYLDYVMDKLDVILLMSVNPGFGGQSFIPQTLDKLREVRRRIDESGFDIRLEVDGGVKVNNIGEIAAAGADMFVAGSAIFDQPDYKKVIDEMRSELAKVSHE [P0AG07] | 5.6 ± 1.7 | 4.69 ± 0.12 | 4.27 ± 0.7 | 3.2 ± 0.21 | 5.43 ± 0.99 | 11.4 ± 0.82 | 7.52 ± 0.15 | 5.72 ± 0.56 | 12 ± 0.16 | 4.58 ± 0.58 | 5.23 ± 0.28 | 4.84 ± 0.16 |
| MKLISNDLRDGDKLPHRHVFNGMGYDGDNISPHLAWDDVPAGTKSFVVTCYDPDAPTGSGWWHWVVVNLPADTRVLPQGFGSGLVAMPDGVLQTRTDFGKTGYDGAAPPKGETHRYIFTVHALDIERIDVDEGASGAMVGFNVHFHSLASASITAMFS | > 8 | 5.79 ± 0.095 | 5.96 ± 0.2 | – | 6.07 ± 0.44 | 13.4 ± 2 | 11.4 ± 1.1 | 6.04 ± 0.39 | 10.9 ± 2.7 | 5.59 ± 0.26 | – | 5.42 ± 0.21 |
| MNTTLFRWPVRVYYEDTDAGGVVYHASYVAFYERARTEMLRHHHFSQQALMAERVAFVVRKMTVEYYAPARLDDMLEIQTEITSMRGTSLVFTQRIVNAENTLLNEAEVLVVCVDPLKMKPRALPKSIVAEFKQ [P0A8Z3] | 6.41 ± 0.61 | 6.27 ± 0.26 | 5.7 ± 0.13 | – | 5.99 ± 0.073 | 11.1 ± 2.1 | 12.3 ± 2.7 | 5.68 ± 0.45 | 12.63 ± 0.092 | 6.54 ± 0.91 | 5.87 ± 0.51 | 5.28 ± 0.094 |
| MIEFVYPHTQLVAGVDEVGRGPLVGAVVTAAVILDPARPIAGLNDSKKLSEKRRLALYEEIKEKALSWSLGRAEPHEIDELNILHATMLAMQRAVAGLHIAPEYVLIDGNRCPKLPMPAMAVVKGDSRVPEISAASILAKVTRDAEMAALDIVFPQYGFAQHKGYPTAFHLEKLAEHGATEHHRRSFGPVKRALGLAS | 1.11 | 2.38 ± 0.2 | 1.39 ± 0.024 | 1.7 ± 0.042 | 2.67 ± 0.43 | 3.19 | 1.91 | 1.43 | 2.12 ± 0.71 | 1.93 | – | 1.19 |
